From patent US20260049138A1 (Chugai, published 2026)

B1: CE115HA000 N53I one-arm antibody (antibody, human IgG1, kappa, L234A L235A, N297A, name in Kabat numbering)
heavy: QVQLVESGGGVVQPGRSLRLSCAASGFTFSNAWMHWVRQAPGKGLEWVAQIKAKSINYATYYAESVKGRFTISRDDSKNSLYLQMNSLKTEDTAVYYCRYVHYGAYYGVDAWGQGTTVTVSSASTKGPSVFPLAPSSKSTSGGTAALGCLVKDYFPEPVTVSWNSGALTSGVHTFPAVLQSSGLYSLSSVVTVPSSSLGTQTYICNVNHKPSNTKVDKKVEPKSCDKTHTCPPCPAPEAAGGPSVFLFPPKPKDTLMISRTPEVTCVVVDVSHEDPEVKFNWYVDGVEVHNAKTKPREEQYASTYRVVSVLTVLHQDWLNGKEYKCKVSNKALPAPIEKTISKAKGQPREPQVYTLPPSRCELTKNQVSLSCAVKGFYPSDIAVEWESNGQPENNYKTTPPVLDSDGSFFLVSKLTVDKSRWQQGNVFSCSVMHEALHNHYTQKSLSLSPDYKDDDDK
chain: EPKSSDKTHTCPPCPAPELLGGPSVFLFPPKPKDTLMISRTPEVTCVVVDVSHEDPEVKFNWYVDGVEVHNAKTKPREEQYNSTYRVVSVLTVLHQDWLNGKEYKCKVSNKALPAPIEKTISKAKGQPREPQVCTLPPSRDELTKNQVSLWCLVKGFYPSDIAVEWESNGQPENNYKTTPPVLDSDGSFFLYSKLTVDKSRWQQGNVFSCSVMHEALHNRYTQKSLSLSP
light: DIVMTQSPLSLPVTPGEPASISCRSSQSLVHSNRNTYLHWYQQKPGQAPRLLIYKVSNRFSGVPDRFSGSGSGTDFTLKISRVEAEDVGVYYCGQGTQVPYTFGQGTKLEIKRTVAAPSVFIFPPSDEQLKSGTASVVCLLNNFYPREAKVQWKVDNALQSGNSQESVTEQDSKDSTYSLSSTLTLSKADYEKHKVYACEVTHQGLSSPVTKSFNRGEC
B2: CE115HA000 N53K one-arm antibody (antibody, human IgG1, kappa, L234A L235A, N297A, name in Kabat numbering)
heavy: QVQLVESGGGVVQPGRSLRLSCAASGFTFSNAWMHWVRQAPGKGLEWVAQIKAKSKNYATYYAESVKGRFTISRDDSKNSLYLQMNSLKTEDTAVYYCRYVHYGAYYGVDAWGQGTTVTVSSASTKGPSVFPLAPSSKSTSGGTAALGCLVKDYFPEPVTVSWNSGALTSGVHTFPAVLQSSGLYSLSSVVTVPSSSLGTQTYICNVNHKPSNTKVDKKVEPKSCDKTHTCPPCPAPEAAGGPSVFLFPPKPKDTLMISRTPEVTCVVVDVSHEDPEVKFNWYVDGVEVHNAKTKPREEQYASTYRVVSVLTVLHQDWLNGKEYKCKVSNKALPAPIEKTISKAKGQPREPQVYTLPPSRCELTKNQVSLSCAVKGFYPSDIAVEWESNGQPENNYKTTPPVLDSDGSFFLVSKLTVDKSRWQQGNVFSCSVMHEALHNHYTQKSLSLSPDYKDDDDK
chain: EPKSSDKTHTCPPCPAPELLGGPSVFLFPPKPKDTLMISRTPEVTCVVVDVSHEDPEVKFNWYVDGVEVHNAKTKPREEQYNSTYRVVSVLTVLHQDWLNGKEYKCKVSNKALPAPIEKTISKAKGQPREPQVCTLPPSRDELTKNQVSLWCLVKGFYPSDIAVEWESNGQPENNYKTTPPVLDSDGSFFLYSKLTVDKSRWQQGNVFSCSVMHEALHNRYTQKSLSLSP
light: DIVMTQSPLSLPVTPGEPASISCRSSQSLVHSNRNTYLHWYQQKPGQAPRLLIYKVSNRFSGVPDRFSGSGSGTDFTLKISRVEAEDVGVYYCGQGTQVPYTFGQGTKLEIKRTVAAPSVFIFPPSDEQLKSGTASVVCLLNNFYPREAKVQWKVDNALQSGNSQESVTEQDSKDSTYSLSSTLTLSKADYEKHKVYACEVTHQGLSSPVTKSFNRGEC

Biological target: T1, CD3ε homodimer protein (human, UniProt P07766 23-126, limits assumed, sulfo-tag or biotin label in the ECL assays; amine-coupled to the chip in SPR)
T1 construct: also called human CD3ε homodimer protein; CD3 (CD3ε)
Experiment: SPR Biacore T200; CD3ε homodimer on CM4 chip;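 further: Single-residue variant antibodies injected as analyte over CD3ε homodimer immobilized by amine coupling, run at 25 °C in HBS-EP+ buffer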

T1 sequence (P07766 23-126 limits assumed): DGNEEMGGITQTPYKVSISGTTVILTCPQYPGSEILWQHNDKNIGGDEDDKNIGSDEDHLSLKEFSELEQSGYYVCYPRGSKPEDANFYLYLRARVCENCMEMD

| Binder | ratio of amounts bound Z=Y/X (altered form / CE115HA000) |
| --- | --- |
| B1 | 0.68 |
| B2 | 0.78 |
